{"source": "paper PMC7379371", "key": {"[1]": {"target": "chimeric antibody I3.1 Fab (human)", "sequence (heavy, as listed by the source, chain 1 of 2)": "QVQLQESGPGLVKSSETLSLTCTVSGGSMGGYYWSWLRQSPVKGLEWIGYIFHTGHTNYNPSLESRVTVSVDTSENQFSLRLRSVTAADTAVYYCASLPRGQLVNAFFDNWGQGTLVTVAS", "sequence (light, as listed by the source, chain 2 of 2)": "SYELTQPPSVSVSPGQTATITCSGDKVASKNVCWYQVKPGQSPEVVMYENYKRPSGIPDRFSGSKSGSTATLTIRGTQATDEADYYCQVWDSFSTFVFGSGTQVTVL", "assay": "BLI; fortéBIO BLItz; Fab (0.2 mg/mL) immobilised on Anti-Human Fab-CH1 second generation biosensors; gp120 core in solution at three or more concentrations (9.6 to 110 μM); 10 mM Tris, pH 7.5, 100 mM NaCl; global fit of at least three measurements"}, "[2]": {"target": "chimeric antibody I3.1 Fab (human)", "assay": "BLI; […]; Fab (0.2 mg/mL) […] (9.6 to 110 μM); 10 mM Tris, pH 7.5, 100 mM NaCl; […]"}}}
{"substance": "92UG037.8 gp120 core WT (domain or fragment)", "values": [{"measurement": "Kd", "setting": "[1]", "result": 3280, "unit": "nM"}]}
{"substance": "CH505 T/F gp120 core WT (domain or fragment)", "values": [{"measurement": "Kd", "setting": "[2]", "result": 1980, "unit": "nM"}]}
